# B1: Phospholipid-transporting ATPase VB (Homo sapiens), O94823-1 (parent)
# chain: MALSVDSSWHRWQWRVRDGFPHCPSETTPLLSPEKGRQSYNLTQQRVVFPNNSIFHQDWEEVSRRYPGNRTCTTKYTLFTFLPRNLFEQFHRWANLYFLFLVILNWMPSMEVFHREITMLPLAIVLFVIMIKDGMEDFKRHRFDKAINCSNIRIYERKEQTYVQKCWKDVRVGDFIQMKCNEIVPADILLLFSSDPNGICHLETASLDGETNLKQRCVVKGFSQQEVQFEPELFHNTIVCEKPNNHLNKFKGYMEHPDQTRTGFGCESLLLRGCTIRNTEMAVGIVIYAGHETKAMLNNSGPRYKRSKIERRMNIDIFFCIGILILMCLIGAVGHSIWNGTFEEHPPFDVPDANGSFLPSALGGFYMFLTMIILLQVLIPISLYVSIELVKLGQVFFLSNDLDLYDEETDLSIQCRALNIAEDLGQIQYIFSDKTGTLTENKMVFRRCTIMGSEYSHQENAKRLETPKELDSDGEEWTQYQCLSFSARWAQDPATMRSQKGAQPLRRSQSARVPIQGHYRQRSMGHRESSQPPVAFSSSIEKDVTPDKNLLTKVRDAALWLETLSDSRPAKASLSTTSSIADFFLALTICNSVMVSTTTEPRQRVTIKPSSKALGTSLEKIQQLFQKLKLLSLSQSFSSTAPSDTDLGESLGANVATTDSDERDDASVCSGGDSTDDGGYRSSMWDQGDILESGSGTSLEEALEAPATDLARPEFCYEAESPDEAALVHAAHAYSFTLVSRTPEQVTVRLPQGTCLTFSLLCTLGFDSVRKRMSVVVRHPLTGEIVVYTKGADSVIMDLLEDPACVPDINMEKKLRKIRARTQKHLDLYARDGLRTLCIAKKVVSEEDFRRWASFRREAEASLDNRDELLMETAQHLENQLTLLGATGIEDRLQEGVPDTIATLREAGIQLWVLTGDKQETAVNIAHSCRLLNQTDTVYTINTENQETCESILNCALEELKQFRELQKPDRKLFGFRLPSKTPSITSEAVVPEAGLVIDGKTLNAIFQGKLEKKFLELTQYCRSVLCCRSTPLQKSMIVKLVRDKLRVMTLSIGDGANDVSMIQAADIGIGISGQEGMQAVMSSDFAITRFKHLKKLLLVHGHWCYSRLARMVVYYLYKNVCYVNLLFWYQFFCGFSSSTMIDYWQMIFFNLFFTSLPPLVFGVLDKDISAETLLALPELYKSGQNSECYNLSTFWISMVDAFYQSLICFFIPYLAYKGSDIDVFTFGTPINTISLTTILLHQAMEMKTWTIFHGVVLLGSFLMYFLVSLLYNATCVICNSPTNPYWVMEGQLSNPTFYLVCFLTPVVALLPRYFFLSLQGTCGKSLISKAQKIDKLPPDKRNLEIQSWRSRQRPAPVPEVARPTHHPVSSITGQDFSASTPKSSNPPKRKHVEESVLHEQRCGTECMRDDSCSGDSSAQLSSGEHLLGPNRIMAYSRGQTDMCRCSKRSSHRRSQSSLTI
# partner: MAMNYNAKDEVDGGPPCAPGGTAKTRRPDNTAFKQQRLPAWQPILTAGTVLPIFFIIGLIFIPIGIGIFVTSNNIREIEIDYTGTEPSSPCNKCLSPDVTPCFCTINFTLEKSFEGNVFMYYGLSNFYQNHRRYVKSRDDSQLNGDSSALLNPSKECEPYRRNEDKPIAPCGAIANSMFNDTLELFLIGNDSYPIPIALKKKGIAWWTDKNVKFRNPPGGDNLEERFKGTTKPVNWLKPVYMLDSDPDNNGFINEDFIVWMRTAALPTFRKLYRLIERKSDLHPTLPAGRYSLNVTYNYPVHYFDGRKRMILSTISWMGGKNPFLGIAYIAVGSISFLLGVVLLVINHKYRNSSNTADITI
# Variants of: B1
# Settings: with TMEM30A
row,Variant,effect of a mutation on the interaction
1,V48L,with no effect
2,E993A,with no effect

# More lines, now with the values ahead:
row,effect of a mutation on the interaction,Variant
1,with no effect,I1038T
2,with no effect,G671R;N865K
3,with no effect,E210A

# — IntAct's records for PubMed 32172343
